Positions of bridges follow the written chain, without caps; N, C: chain ends. Non-standard residues stand in square brackets, D forms with d. Residues, ends and D or L forms follow the SMILES beside them. No end group written: not given here. m‑xylene = 1,3-bis[(methylthio)methyl]benzene scaffold from m-xylene dibromide; miniPEG = polyethylene glycol moiety (linker unit); 1Nal = N[C@@H](Cc1cccc2ccccc12)C(=O)O; 2Nal = N[C@@H](Cc1ccc2ccccc2c1)C(=O)O; Bta = N[C@@H](Cc1csc2ccccc12)C(=O)O; Tle = CC(C)(C)[C@H](N)C(=O)O; Dap = NC[C@H](N)C(=O)O; AEEA = NCCOCCOCC(=O)O; βAla = NCCC(=O)O
Key:
[1] = target: T1, β-catenin (Homo sapiens, UniProt P35222); assay: FP-based competition assay for binding to β-catenin; conditions: IC50; competition with FAM-labeled peptide 1 (10 nM), 50 nM GST-β-catenin; read-out: KD or IC50
T1 construct: cells harboring plasmid pGEX-β-catenin(133-665)52 were grown in LB medium; made in house; host or cells: E. coli BL21 (DE3)
T1 sequence (P35222 133-665): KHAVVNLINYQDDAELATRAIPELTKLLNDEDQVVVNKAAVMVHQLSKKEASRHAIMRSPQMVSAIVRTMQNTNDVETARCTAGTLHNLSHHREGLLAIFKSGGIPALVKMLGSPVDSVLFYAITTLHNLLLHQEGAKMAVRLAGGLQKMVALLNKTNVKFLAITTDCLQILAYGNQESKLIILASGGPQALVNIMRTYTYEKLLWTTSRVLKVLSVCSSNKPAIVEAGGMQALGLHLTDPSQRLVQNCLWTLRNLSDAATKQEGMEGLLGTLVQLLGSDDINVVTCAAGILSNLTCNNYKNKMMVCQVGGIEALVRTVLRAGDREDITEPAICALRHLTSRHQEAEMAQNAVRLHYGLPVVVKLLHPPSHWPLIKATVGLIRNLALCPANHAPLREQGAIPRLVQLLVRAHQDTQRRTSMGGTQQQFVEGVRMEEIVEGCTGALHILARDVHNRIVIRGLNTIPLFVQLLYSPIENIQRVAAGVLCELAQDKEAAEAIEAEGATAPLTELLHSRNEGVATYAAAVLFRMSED
Method: Samples were transferred into black-on-black 384-well non-binding microplates (Greiner) and FP was measured using a Tecan M1000 Infinite plate reader. The data were analyzed using GraphPad Prism v. 8.0 and normalized to FP values corresponding to fully bound/unbound probe. All binding values reported are the mean±SD of independent experiments.
Protein Purification. […] Cells were harvested by centrifugation and lysed in lysis buffer (20 mM Tris, pH 8.0, 150 mM NaCl, 2 mM DTT, 1% Triton-X100, 200 mM EDTA, 10 mg/mL PMSF, and 0.2 mg/mL lysozyme) on ice for 20 min, followed by sonication (8 s off, 2 s on, 1 min total, performed twice at 70% amplitude). The homogenate was centrifuged (13,000 g for 30 min at 4° C. and the clear supernatant was loaded onto an equilibrated glutathione-agarose column. After exhaustive washing with wash buffer (20 mM Tris, pH 7.4, 150 mM NaCl, 2 mM DTT), the bound GST-β-catenin was eluted with wash buffer supplemented with 10 mM glutathione, concentrated, and stored at −80° C. in 30% glycerol.

[2] = target: T2, GST-β-catenin (UniProt P35222 133-665); assay: Table 7, binding to β-catenin; FP competition as for peptides 2-5 presumed
T2 construct: range 133-665; GST fusion purified on glutathione-agarose and used in the FP assays; also called GST-β-catenin(133-665); pGEX-β-catenin(133-665); not shown: glutathione S-transferase (GST) tag encoded by the pGEX plasmid
T2 sequence (looked up): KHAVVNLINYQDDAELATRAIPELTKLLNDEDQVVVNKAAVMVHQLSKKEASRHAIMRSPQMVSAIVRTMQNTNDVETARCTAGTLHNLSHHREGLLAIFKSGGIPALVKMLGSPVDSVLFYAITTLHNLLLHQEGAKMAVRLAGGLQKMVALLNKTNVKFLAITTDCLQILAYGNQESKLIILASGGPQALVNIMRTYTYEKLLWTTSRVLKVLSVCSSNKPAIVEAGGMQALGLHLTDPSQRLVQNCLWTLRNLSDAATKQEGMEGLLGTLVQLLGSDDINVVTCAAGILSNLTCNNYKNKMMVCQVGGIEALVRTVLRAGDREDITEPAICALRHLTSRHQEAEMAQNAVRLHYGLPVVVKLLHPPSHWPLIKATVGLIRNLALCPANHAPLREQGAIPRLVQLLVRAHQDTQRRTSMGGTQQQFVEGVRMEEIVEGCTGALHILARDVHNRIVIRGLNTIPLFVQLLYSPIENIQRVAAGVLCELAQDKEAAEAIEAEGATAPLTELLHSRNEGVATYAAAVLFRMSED

CC[C@H](C)[C@@H]1NC(=O)[C@@H](NC(=O)[C@H](CCC(=O)O)NC(=O)[C@@H]2CCCN2C(=O)[C@H](Cc2ccc(O)cc2)NC(C)=O)CC(=O)NCCCC[C@@H](C(=O)N[C@@H](Cc2c[nH]cn2)C(=O)N[C@@H](CC(C)C)C(=O)N[C@@H](CCC(N)=O)C(=O)N[C@@H](CCCNC(=N)N)C(=O)N[C@H](C(=O)N[C@@H](Cc2csc3ccccc23)C(=O)N[C@H](CCCNC(=N)N)C(=O)NCCOCCOCC(=O)NCCOCCOCC(=O)N[C@@H](CN)C(N)=O)C(C)(C)C)NC(=O)[C@H](CC(=O)O)NC(=O)[C@H](CC(C)C)NC1=O [Peptide 27, Ac-YPEDILDKHLQRZ(3-Bta)(dR)-(miniPEG)2-Dap-NH2] (Ac-YPEDILDKHLQR[Tle][Bta][dR][AEEA][AEEA][Dap]-NH2; lactam 4-8)
IC50 [1]: 41 nM

CC[C@H](C)[C@@H]1NC(=O)[C@@H](NC(=O)[C@H](CCC(=O)O)NC(=O)[C@@H]2CCCN2C(=O)[C@H](Cc2ccc(O)cc2)NC(C)=O)CC(=O)NCCCC[C@@H](C(=O)N[C@@H](Cc2c[nH]cn2)C(=O)N[C@@H](CC(C)C)C(=O)N[C@@H](CCC(N)=O)C(=O)N[C@@H](CCCNC(=N)N)C(=O)N[C@H](C(=O)N[C@@H](Cc2csc3ccccc23)C(=O)N[C@@H](CCCNC(=N)N)C(=O)NCCOCCOCC(=O)NCCOCCOCC(=O)N[C@@H](CN)C(N)=O)C(C)(C)C)NC(=O)[C@H](CC(=O)O)NC(=O)[C@H](CC(C)C)NC1=O [Peptide 26, Ac-YPEDILDKHLQRZ(3-Bta)R-(miniPEG)2-Dap-NH2] (Ac-YPEDILDKHLQR[Tle][Bta]R[AEEA][AEEA][Dap]-NH2; lactam 4-8)
IC50 [1]: 37 nM

Ac-GGYPEDILDKHLQCVILC[βAla]-NH2 (lactam 6-10; linker 14-18 via m‑xylene, Double stapled peptide) [Peptide 8]
IC50 [2]: 525000 nM

Ac-GGYPEDILDKHLQR[Tle]WL-NH2 (lactam 6-10, also called Ac-GGYPEDILDKHLQRZWL-NH2) [Peptide 10]
IC50 [2]: 71 nM

B1: Peptide 11 (peptide)
peptide: Ac-GGYPEDILDKHLQR[Tle][Bta]L-NH2
modifications: lactam 6-10
notes: also called Ac-GGYPEDILDKHLQRZ(3-Bta)L-NH2
IC50 [2]: 65 nM

B2: Peptide 12 (peptide)
peptide: Ac-GGYPEDILDKHLQR[Tle][1Nal]L-NH2
modifications: lactam 6-10
notes: also called Ac-GGYPEDILDKHLQRZ(1-Nal)L-NH2
IC50 [2]: 175 nM

B3: Peptide 13 (peptide)
peptide: Ac-GGYPEDILDKHLQR[Tle][2Nal]L-NH2
modifications: lactam 6-10
notes: also called Ac-GGYPEDILDKHLQRZ(2-Nal)L-NH2
IC50 [2]: 86 nM

B4: Peptide 14 (peptide)
peptide: XXRXRXQGGYPEDILDKHLQRXXL
modifications: not fully specified; N-terminal CPP9-(miniPEG)2; Asp-Lys staple; Z = tert-leucine; 3-Bta = 3-benzothienyl-l-alanine; C-terminal amide
notes: also called CPP9-(miniPEG)2-GGYPEDILDKHLQRZ(3-Bta)L-NH2
IC50 [2]: 63.5 nM

B5: Peptide 15 (peptide)
peptide: XXRXRXQGGYPEDILDKHLQRXXL
modifications: not fully specified; N-terminal CPP9-(miniPEG)2; Asp-Lys staple; Z = tert-leucine; 2-Nal = 2-napthylalanine; C-terminal amide
notes: also called CPP9-(miniPEG)2-GGYPEDILDKHLQRZ(2-Nal)L-NH2
IC50 [2]: 79.4 nM

B6: Peptide 16 (peptide)
peptide: Ac-GG[Bta]PEDILDKHLQR[Tle][Bta]L-NH2
modifications: lactam 6-10
SMILES: CC[C@H](C)[C@@H]1NC(=O)[C@@H](NC(=O)[C@H](CCC(=O)O)NC(=O)[C@@H]2CCCN2C(=O)[C@H](Cc2csc3ccccc23)NC(=O)CNC(=O)CNC(C)=O)CC(=O)NCCCC[C@@H](C(=O)N[C@@H](Cc2c[nH]cn2)C(=O)N[C@@H](CC(C)C)C(=O)N[C@@H](CCC(N)=O)C(=O)N[C@@H](CCCNC(=N)N)C(=O)N[C@H](C(=O)N[C@@H](Cc2csc3ccccc23)C(=O)N[C@@H](CC(C)C)C(N)=O)C(C)(C)C)NC(=O)[C@H](CC(=O)O)NC(=O)[C@H](CC(C)C)NC1=O
notes: also called Ac-GG(3-Bta)PEDILDKHLQRZ(3-Bta)L-NH2
IC50 [2]: 97.9 nM

B7: Peptide 18 (peptide)
peptide: Ac-GGYPEDILDKHLQR[Tle][Bta]L[AEEA][AEEA][Dap][dF][2Nal]R[dR]R[dR]Q
modifications: lactam 6-10; bridge (positions not given here); not fully specified (bridges); numbers in words are those of the source; also: cCPP9 ring hung on Dap18 side chain via Gln25 side chain, no backbone bond Dap18-X19
notes: also called Ac-GGYPEDILDKHLQRZ(3-Bta)L-(miniPEG)2-Dap(CPP9)
IC50 [2]: 104 nM

Ac-YPEDILDKHLQSV[Bta]T[miniPEG][miniPEG][Dap]-NH2 (lactam 4-8) [Peptide 19]
IC50 [2]: 382 nM

Ac-YPEDILDKHLQEV[Bta]T[miniPEG][miniPEG][Dap]-NH2 (lactam 4-8) [Peptide 20]
IC50 [2]: 1800 nM

Ac-YPEDILDKHLQQV[Bta]T[miniPEG][miniPEG][Dap]-NH2 (lactam 4-8) [Peptide 21]
IC50 [2]: 328 nM

Ac-YPEDILDKHLQ[dE]V[Bta]T[miniPEG][miniPEG][Dap]-NH2 (lactam 4-8) [Peptide 22]
IC50 [2]: 3500 nM

Ac-YPEDILDKHLQSV[Bta][dS][miniPEG][miniPEG][Dap]-NH2 (lactam 4-8) [Peptide 23]
IC50 [2]: 565 nM

B8: Peptide 28 (peptide)
peptide: Ac-YPEDILDKHLQRV[Tle]L[miniPEG][miniPEG][Dap]-NH2
modifications: lactam 4-8
notes: also called Ac-YPEDILDKHLQRVZL-(miniPEG)2-Dap-NH2
IC50 [2]: 306 nM

YPEDILDKHLQRXIL (N-terminal acetyl; Asp-Lys staple; Hvl = β-hydroxyvaline; C-terminal amide) [Peptide 37]
IC50 [2]: 154 nM

Ac-GGYPEDILDKHLQRVIL-NH2 (lactam (positions not given here); not fully specified) [Peptide 6]
IC50 [2]: 245 nM

B9: Peptide 7 (peptide)
peptide: Ac-GGYPECILDCKHLQDVILK[βAla]-NH2
modifications: lactam (positions not given here); linker 6-10 via m‑xylene; not fully specified; also: Asp-Lys staple, places not given here (residues shown as images)
notes: Double stapled peptide
IC50 [2]: 3200 nM
